Results on one protein are retold here after paper PMC4462073, “Insights into the evolution of enzyme substrate promiscuity after the discovery of (βα)8 isomerase evolutionary intermediates from a diverse metagenome” (BMC Evolutionary Biology, 2015).

Usually Km stands for the concentration of substrate that gives half-maximal velocity. Broadly, the kcat is the maximal rate divided by the concentration of active sites. As a reminder, the kcat/Km is the second-order rate constant that governs catalysis at low substrate concentration.

Substrate in the data set: NC(=O)c1ncn([C@@H]2O[C@H](COP(=O)(O)O)[C@@H](O)[C@H]2O)c1N=CN[C@@H]1O[C@H](COP(=O)(O)O)[C@@H](O)[C@H]1O
Briefly: purified protein. It counts as biochemical, Acidimicrobium ferrooxidans.

B1: HisA_Afer (Acidimicrobium ferrooxidans DSM 10331) (protein)
chain: MELVVAVDLLDGEAVRLRQGRFDAPRRFGDPRRYVEGALDAGARWFHVVDLDRARTPGDRRNADMVGDLIALVREAGGSVEVGGGVRTARDIAELLETGASRVVLGTALVEETLDELDPEHLVAALDYRRGDEGALEVVVSAWERSGGRRLLEASARLFARGVRTQLLTDVGRDGMASGPDLGTYQGLCEVVPVEVIASGGVASADDLAKLAAIRGARGAVWGAVVGTALLDGSLGFDEALSACRA
notes: codon-optimised synthetic gene in pET22b (NdeI/HindIII), expressed in E. coli, purified
On to B1, for which the Km was 1.1 ± 0.2 µM, the catalytic constant (kcat) was determined as 0.05 ± 0.001 s⁻¹ and the kcat/Km came to 45000 M⁻¹ s⁻¹.
